The values below come from article PMC6433865.

The target in experiment [1] is T1, C terminus of Hsc70-interacting protein (CHIP) (human), Q9UNE7.
T1 chain: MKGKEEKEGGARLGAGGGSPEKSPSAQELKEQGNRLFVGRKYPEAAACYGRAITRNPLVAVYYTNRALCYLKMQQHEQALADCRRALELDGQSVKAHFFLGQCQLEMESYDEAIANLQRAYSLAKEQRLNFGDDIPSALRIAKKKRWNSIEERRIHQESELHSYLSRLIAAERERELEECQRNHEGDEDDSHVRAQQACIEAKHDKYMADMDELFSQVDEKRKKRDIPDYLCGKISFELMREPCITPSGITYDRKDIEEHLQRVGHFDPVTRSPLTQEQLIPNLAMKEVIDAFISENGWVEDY
Briefly: cryo-EM structure; ternary complexes after GraFix, vitrified; Titan Krios 300 kV (Hsp70:p53-TMGST:CHIP, 15 Å) or Talos Arctica 200 kV (Hsp90:p53-TMGST:CHIP, 13 Å); atomic structures docked. The settings on record: remark: other sources report otherwise.

Experiment [2] addresses T1, C terminus of Hsc70-interacting protein …. Briefly: negative-stain electron microscopy, 3D reconstruction; complexes stabilised and isolated by GraFix (10-30% glycerol gradient, 0.15% glutaraldehyde), stained with 2% uranyl acetate, JEOL JEM1010 at 80 kV; atomic structures docked into 19-26 Å volumes. The conditions noted are these: remark: other sources report otherwise.

B1: C terminus of Hsc70-interacting protein (CHIP), Q9UNE7 1-303 (enzyme)
chain: MKGKEEKEGGARLGAGGGSPEKSPSAQELKEQGNRLFVGRKYPEAAACYGRAITRNPLVAVYYTNRALCYLKMQQHEQALADCRRALELDGQSVKAHFFLGQCQLEMESYDEAIANLQRAYSLAKEQRLNFGDDIPSALRIAKKKRWNSIEERRIHQESELHSYLSRLIAAERERELEECQRNHEGDEDDSHVRAQQACIEAKHDKYMADMDELFSQVDEKRKKRDIPDYLCGKISFELMREPCITPSGITYDRKDIEEHLQRVGHFDPVTRSPLTQEQLIPNLAMKEVIDAFISENGWVEDY
On to B1, for which the stoichiometry N in experiment [1] and in experiment [2] was 2 throughout.

In general, stoichiometry N refers to a count of units in the complex or per binding partner.
